# B1: Frizzled-4 (Homo sapiens), Q9ULV1 (parent)
# chain: MAWRGAGPSVPGAPGGVGLSLGLLLQLLLLLGPARGFGDEEERRCDPIRISMCQNLGYNVTKMPNLVGHELQTDAELQLTTFTPLIQYGCSSQLQFFLCSVYVPMCTEKINIPIGPCGGMCLSVKRRCEPVLKEFGFAWPESLNCSKFPPQNDHNHMCMEGPGDEEVPLPHKTPIQPGEECHSVGTNSDQYIWVKRSLNCVLKCGYDAGLYSRSAKEFTDIWMAVWASLCFISTAFTVLTFLIDSSRFSYPERPIIFLSMCYNIYSIAYIVRLTVGRERISCDFEEAAEPVLIQEGLKNTGCAIIFLLMYFFGMASSIWWVILTLTWFLAAGLKWGHEAIEMHSSYFHIAAWAIPAVKTIVILIMRLVDADELTGLCYVGNQNLDALTGFVVAPLFTYLVIGTLFIAAGLVALFKIRSNLQKDGTKTDKLERLMVKIGVFSVLYTVPATCVIACYFYEISNWALFRYSADDSNMAVEMLKIFMSLLVGITSGMWIWSAKTLHTWQKCSNRLVNSGKVKREKRGNGWVKPGKGSETVV
# B2: Norrin (Homo sapiens), Q00604 (parent)
# chain: MRKHVLAASFSMLSLLVIMGDTDSKTDSSFIMDSDPRRCMRHHYVDSISHPLYKCSSKMVLLARCEGHCSQASRSEPLVSFSTVLKQPFRSSCHCCRPQTSKLKALRLRCSGGMRLTATYRYILSCHCEECNS
# Variants of: B1
# Settings: with ndp_human NDP, Q00604
row,effect of a mutation on the interaction,Variant
1,decreasing interaction,M105V

# Variants of: B2
# Settings: with fzd4_human FZD4, Q9ULV1
row,effect of a mutation on the interaction,Variant
1,decreasing interaction,K54D
2,decreasing interaction,R115L

# Reference: IntAct's records for PubMed 17955262
